From IntAct's records for PubMed 38141762

B1: Mitochondrial association factor 1 form b1 (Toxoplasma gondii), A0A140H546 (parent)
chain: MWRIWRCRLSFLFATGCLLGALTAGLGSQMSDSVGRNVQAPAGVADASQEAGDVVEERTERTEEQAFALGPPRRHSSESLFPRNASVTARRRRNRRIALIATAVGVAVILAAVYVLRRRRAQRPQDPEPPAPRSVEDPEVLPEEDEASSSLPPPPPPSPPPPPPVEDPLSPESQTVDLSCLSGTTVRFFGPSHHFGGFTPLYDPAPDKRVATVDAGANALFIGGGGLNGQFAKTLLEEAEKHGIRLTPEELSQHSQRIQQSLLRRAVKSPGKLVELDTGVASPVFARSFGFVPVVPGLMWEESEVGPNVGVTFVHILKPEVTPYGNLNNNVMMYTVAPSGAAPDKTYSLAYKTTIAGVIGAAAAYNDTPAGQQYPVQGLRLPLLGGGIFRRNRSLESIGRANAEGTSLAITRYGPNFELQYMYDPSNAALHGLQEAESTYLASMLD

Variants of: B1
Conditions: with RALGAPA1, Q6GYQ0-1
Chain of RALGAPA1, Q6GYQ0-1 (Q6GYQ0 whole entry): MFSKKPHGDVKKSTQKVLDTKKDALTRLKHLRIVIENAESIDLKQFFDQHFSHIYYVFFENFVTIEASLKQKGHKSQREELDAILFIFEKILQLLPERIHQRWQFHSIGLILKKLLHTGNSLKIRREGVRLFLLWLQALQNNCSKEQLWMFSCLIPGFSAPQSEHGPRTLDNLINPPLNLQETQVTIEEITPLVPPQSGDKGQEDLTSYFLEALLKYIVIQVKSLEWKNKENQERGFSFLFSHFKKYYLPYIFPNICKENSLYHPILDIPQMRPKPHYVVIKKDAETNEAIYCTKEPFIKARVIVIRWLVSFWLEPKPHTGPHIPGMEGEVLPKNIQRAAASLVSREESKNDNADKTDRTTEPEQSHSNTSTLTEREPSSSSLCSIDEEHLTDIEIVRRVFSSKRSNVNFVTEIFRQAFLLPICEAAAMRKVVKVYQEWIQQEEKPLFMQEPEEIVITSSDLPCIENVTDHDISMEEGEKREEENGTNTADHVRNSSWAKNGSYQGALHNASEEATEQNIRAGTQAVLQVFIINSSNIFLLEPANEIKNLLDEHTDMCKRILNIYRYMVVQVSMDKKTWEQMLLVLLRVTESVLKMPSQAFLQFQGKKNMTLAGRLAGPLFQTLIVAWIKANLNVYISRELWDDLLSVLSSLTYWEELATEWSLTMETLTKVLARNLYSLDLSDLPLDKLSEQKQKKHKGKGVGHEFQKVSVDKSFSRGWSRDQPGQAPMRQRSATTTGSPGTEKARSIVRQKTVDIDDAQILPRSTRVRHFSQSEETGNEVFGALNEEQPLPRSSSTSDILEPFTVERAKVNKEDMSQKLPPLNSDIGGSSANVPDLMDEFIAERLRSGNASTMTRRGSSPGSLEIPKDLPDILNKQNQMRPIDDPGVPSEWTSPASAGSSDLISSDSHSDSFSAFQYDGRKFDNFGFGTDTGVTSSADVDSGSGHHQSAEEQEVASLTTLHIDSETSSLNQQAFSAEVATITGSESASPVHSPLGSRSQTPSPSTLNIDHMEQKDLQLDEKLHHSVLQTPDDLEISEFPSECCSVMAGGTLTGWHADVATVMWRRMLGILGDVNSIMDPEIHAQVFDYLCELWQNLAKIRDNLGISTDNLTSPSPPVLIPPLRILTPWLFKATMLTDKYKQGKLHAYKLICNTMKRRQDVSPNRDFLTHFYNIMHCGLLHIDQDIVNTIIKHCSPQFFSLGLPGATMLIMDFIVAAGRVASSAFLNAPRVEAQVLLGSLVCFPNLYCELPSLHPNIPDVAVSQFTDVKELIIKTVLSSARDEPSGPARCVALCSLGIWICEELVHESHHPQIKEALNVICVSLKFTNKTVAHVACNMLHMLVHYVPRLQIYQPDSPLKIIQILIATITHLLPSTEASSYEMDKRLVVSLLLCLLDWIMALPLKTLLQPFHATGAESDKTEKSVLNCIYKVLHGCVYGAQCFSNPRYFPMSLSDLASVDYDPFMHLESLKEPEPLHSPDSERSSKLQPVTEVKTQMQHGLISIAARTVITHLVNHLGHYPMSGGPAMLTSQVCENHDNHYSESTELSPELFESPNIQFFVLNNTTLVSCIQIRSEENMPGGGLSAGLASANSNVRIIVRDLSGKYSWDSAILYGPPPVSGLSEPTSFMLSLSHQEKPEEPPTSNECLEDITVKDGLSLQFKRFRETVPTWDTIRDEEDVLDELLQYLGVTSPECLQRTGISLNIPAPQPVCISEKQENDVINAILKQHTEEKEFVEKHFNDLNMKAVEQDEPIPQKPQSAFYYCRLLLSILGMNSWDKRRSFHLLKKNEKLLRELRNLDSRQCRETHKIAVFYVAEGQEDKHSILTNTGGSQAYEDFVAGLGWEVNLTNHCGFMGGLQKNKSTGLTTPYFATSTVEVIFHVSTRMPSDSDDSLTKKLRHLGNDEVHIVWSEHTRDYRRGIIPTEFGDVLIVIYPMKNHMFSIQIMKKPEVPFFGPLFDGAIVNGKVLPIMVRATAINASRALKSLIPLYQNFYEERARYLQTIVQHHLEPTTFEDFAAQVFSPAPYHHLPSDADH

Variant | effect of a mutation on the interaction
S438R;T439K;L441K | decreasing interaction strength
S438R;L441K | decreasing interaction strength

Variants of: B1
Conditions: with RALGAPA1, Q6GYQ0-1
Remark: another data set of the same source

Variant | effect of a mutation on the interaction
S438R;T439K;L441K | with no effect
S438R;L441K | with no effect
V280R | disrupting interaction strength
A281F | disrupting interaction strength
P283R | disrupting interaction strength
